Test results reported in article PMC6864063, “Molecular basis for the interaction between human choline kinase alpha and the SH3 domain of the c-Src tyrosine kinase” (Scientific Reports, 2019).

Target: T1, Choline kinase alpha, full-length (FL) wild type (human, UniProt P35790 1-457)
T1 construct: Choline kinase alpha, unspliced variant ChoKα1, 457 residues, human, UniProt P35790; full length, up to Val457; Cleaved ChoKα constructs were the probes of the pull-downs; also called ChoKα; ChoKα1; source: E. coli Rosetta (DE3)pLysS, purified (HisTrap Ni2+ column, S-200 gel filtration); not shown: His6, N-terminal, cleaved; SUMO, N-terminal, cleaved
T1 sequence (P35790 whole entry, canonical isoform): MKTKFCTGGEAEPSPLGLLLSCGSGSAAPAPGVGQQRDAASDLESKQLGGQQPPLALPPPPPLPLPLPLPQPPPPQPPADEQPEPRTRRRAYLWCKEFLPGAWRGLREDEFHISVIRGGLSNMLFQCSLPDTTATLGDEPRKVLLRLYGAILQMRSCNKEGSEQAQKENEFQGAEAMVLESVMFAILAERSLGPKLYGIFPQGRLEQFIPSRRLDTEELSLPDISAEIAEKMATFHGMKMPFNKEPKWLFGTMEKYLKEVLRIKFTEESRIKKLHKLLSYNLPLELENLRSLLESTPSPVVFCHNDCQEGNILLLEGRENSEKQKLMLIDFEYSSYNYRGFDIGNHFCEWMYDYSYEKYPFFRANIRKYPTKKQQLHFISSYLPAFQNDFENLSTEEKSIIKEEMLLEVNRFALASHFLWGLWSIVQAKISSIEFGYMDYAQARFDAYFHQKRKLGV
Experiment: SPR; SH3 domains immobilised on one CM5 chip, ChoKα injected in triplicate, 0.1 to 30 µM, 2 min, PBS pH 7.5, 30 µL/min; steady-state KD from RUmax
Conditions: both partners purified

B1: Hck SH3 domain (domain or fragment)
chain: not shown
notes: Src-family kinase Hck, SH3 domain; source: recombinant, purified
**Q.** How did the Kd turn out when B1 was run?
**A.** Its Kd is 25.9 µM.
